Article PMC11490872, “Drug-resistant menin variants retain high binding affinity and interactions with MLL1” (The Journal of Biological Chemistry, 2024)
Read-outs that look alike come from different tables or passages of the source.

How the values were obtained:
Format in all cases: binding
[1] = molecular target: T1, menin^WT bound to FLSN-MLL1^4-43 (Homo sapiens, UniProt O00255); assay: FP competition, displacement of FLSN-MLL1^4-43 from menin^WT
T1 construct: Full-length human menin was expressed in BL21(DE3) cells; thioredoxin-His6 (cleaved yes); made in house; host or cells: E. coli BL21(DE3); probe peptide from GenScript
T1 sequence (O00255 1-610): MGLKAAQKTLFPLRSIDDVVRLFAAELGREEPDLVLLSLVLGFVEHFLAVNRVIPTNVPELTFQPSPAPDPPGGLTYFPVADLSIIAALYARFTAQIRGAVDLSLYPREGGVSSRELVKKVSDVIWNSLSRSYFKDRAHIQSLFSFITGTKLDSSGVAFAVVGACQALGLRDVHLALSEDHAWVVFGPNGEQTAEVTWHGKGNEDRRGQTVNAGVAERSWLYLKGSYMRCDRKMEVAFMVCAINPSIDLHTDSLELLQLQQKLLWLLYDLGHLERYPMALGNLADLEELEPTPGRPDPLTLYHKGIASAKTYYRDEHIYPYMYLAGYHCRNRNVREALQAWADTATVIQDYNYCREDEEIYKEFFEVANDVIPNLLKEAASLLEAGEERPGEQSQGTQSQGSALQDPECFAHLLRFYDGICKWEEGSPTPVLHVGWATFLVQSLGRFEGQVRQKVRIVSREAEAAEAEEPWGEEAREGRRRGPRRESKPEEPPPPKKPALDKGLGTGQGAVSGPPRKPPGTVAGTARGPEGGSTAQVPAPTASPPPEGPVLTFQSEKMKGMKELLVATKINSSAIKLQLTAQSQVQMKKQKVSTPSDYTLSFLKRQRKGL
Experimental: (§1) FP competition experiments used FLSN-MLL1^4-43 at 4 nM and menin at 4 nM against varying concentrations of unlabeled MLL1 peptides in FP buffer for IC50 determination. Protein-peptide complexes were incubated for 1 h before unlabeled peptide competitors were added to ensure complete binding. Unlabeled peptide competitors were incubated with the protein-peptide complexes for 3 h before measurement using the PHERAstar microplate reader ([25]). Experiments with Revumenib were run with the same steps and conditions but used 5% DMSO in the final solution. Kd and IC50 values were calculated using GraphPad Prism 10 by plotting mP values measured for each protein/MLL1 peptide or Revumenib as a function of protein/MLL1 peptide (or Revumenib) concentration ([25]). All FP binding and competition experiments were run in triplicate.

[2] = molecular target: T2, menin^G331D-FLSN-MLL1^4-43 (Homo sapiens, UniProt O00255, G326D); assay: FP competition, displacement of FLSN-MLL1^4-43 from menin^G331D
T2 construct: The gene encoding full-length human menin was cloned into a pET32a expression vector; thioredoxin-His6 (cleaved yes); made in house; host or cells: E. coli BL21(DE3); probe peptide from GenScript
T2 sequence (O00255 1-610 G326D): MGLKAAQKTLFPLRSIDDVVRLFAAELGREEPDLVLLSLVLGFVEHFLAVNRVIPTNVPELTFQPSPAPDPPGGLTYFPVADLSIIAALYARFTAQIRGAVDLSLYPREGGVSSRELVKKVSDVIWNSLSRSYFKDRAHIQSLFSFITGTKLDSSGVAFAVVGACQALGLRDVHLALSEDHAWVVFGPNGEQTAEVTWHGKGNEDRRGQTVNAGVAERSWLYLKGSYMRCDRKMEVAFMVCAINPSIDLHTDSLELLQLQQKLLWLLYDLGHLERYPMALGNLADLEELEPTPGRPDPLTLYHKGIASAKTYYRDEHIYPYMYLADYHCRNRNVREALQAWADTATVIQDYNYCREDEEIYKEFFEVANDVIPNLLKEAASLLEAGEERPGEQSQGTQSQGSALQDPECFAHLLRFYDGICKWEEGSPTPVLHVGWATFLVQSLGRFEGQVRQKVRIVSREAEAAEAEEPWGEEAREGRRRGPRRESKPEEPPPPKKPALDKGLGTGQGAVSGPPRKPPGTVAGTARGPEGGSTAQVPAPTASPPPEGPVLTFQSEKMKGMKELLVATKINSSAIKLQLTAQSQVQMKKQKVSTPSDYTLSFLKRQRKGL
Experimental: To better understand the mechanism of MLL1 binding with menin mutants, we performed FP competition experiments using FLSN-MLL1^4-43 as a fluorescent probe for competitive displacement by MLL1 peptides ([25]). First, we tested competition with MLL1^160 and found very similar IC50 values for wild-type menin and the three mutants M327I, T349M, and G331R, ranging between 4.1 and 8 nM (Fig. 3, A and B). […] We have hypothesized that the lack of competition with MLL1 for the menin^G331D mutant might result from a much slower dissociation rate of the menin^G331D–MLL1 complex, and to evaluate this we performed time-dependent competition experiments with MLL1^160 and MLL1^46. Standard conditions in the FP assay include 3 h incubations of the menin-FLSN-MLL1^4-43 complex with competitors.
as §1

[3] = molecular target: T3, menin^M327I bound to FLSN-MLL1^4-43 (Homo sapiens, UniProt O00255, M322I); assay: FP competition, displacement of FLSN-MLL1^4-43 from menin^M327I
T3 construct: The gene encoding full-length human menin was cloned into a pET32a expression vector; thioredoxin-His6 (cleaved yes); made in house; host or cells: E. coli BL21(DE3); probe peptide from GenScript
T3 sequence (O00255 1-610 M322I): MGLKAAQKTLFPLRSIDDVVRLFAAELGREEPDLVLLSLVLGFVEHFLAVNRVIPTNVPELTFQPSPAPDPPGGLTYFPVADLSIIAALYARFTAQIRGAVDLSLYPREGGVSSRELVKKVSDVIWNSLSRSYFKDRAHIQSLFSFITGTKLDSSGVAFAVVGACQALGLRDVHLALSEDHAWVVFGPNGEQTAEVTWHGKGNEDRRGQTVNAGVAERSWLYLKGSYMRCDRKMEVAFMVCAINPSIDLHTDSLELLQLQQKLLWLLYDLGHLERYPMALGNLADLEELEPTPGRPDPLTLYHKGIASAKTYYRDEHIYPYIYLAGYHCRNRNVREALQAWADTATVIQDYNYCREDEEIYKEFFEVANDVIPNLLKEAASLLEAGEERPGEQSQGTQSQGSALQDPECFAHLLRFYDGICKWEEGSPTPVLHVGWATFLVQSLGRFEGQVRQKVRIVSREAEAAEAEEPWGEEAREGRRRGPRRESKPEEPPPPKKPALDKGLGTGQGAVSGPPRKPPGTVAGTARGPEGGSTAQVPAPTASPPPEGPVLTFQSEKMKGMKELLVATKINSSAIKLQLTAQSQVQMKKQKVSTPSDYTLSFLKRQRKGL
Experimental: as §1

[4] = FP competition with MLL1 fragments, 3 h incubation, N = 3, Fig. 3B, read-out: WT IC50
[5] = FP competition with MLL1 fragments, 3 h incubation, N = 3, Fig. 3B, read-out: G331D IC50
[6] = time-dependent competition, 3 h, Fig. 3D, read-out: 3h IC50
[7] = time-dependent competition, 24 h, Fig. 3D, read-out: 24h IC50
[8] = time-dependent competition, 48 h, Fig. 3D, read-out: 48h IC50
[9] = time-dependent competition, 72 h, Fig. 3D, read-out: 72h IC50
[10] = FP competition with MLL1 fragments, 3 h incubation, N = 3, Fig. 3B, read-out: M327I IC50

`CCN(C(=O)c1cc(F)ccc1Oc1cncnc1N1CC2(CCN(C[C@H]3CC[C@H](NS(=O)(=O)CC)CC3)CC2)C1)C(C)C` [Revumenib, reference compound] was tested, and the IC50 ([1]; FP competition, 5% DMSO, 3 h, N = 3, Fig. 4A, read-out: IC50 (nM), menin variant WT) was 5.7 nM, the “activity for the G331D variant” value ([2]; FP competition, 5% DMSO) was “no activity” and the IC50 ([3]; FP competition, 5% DMSO, 3 h, N = 3, Fig. 4A, read-out: IC50 (nM), menin variant M327I) was 535 ± 37 nM.

For “MLL1^46: recombinant MLL1 fragment spanning amino acids 1–46, containing MBM1 and MBM2 (MAHSARWRFPARPGTTGGGGGGGRRGLGGAPRQRVPALLLPPGPPV; The printed 'Cys2' is Cys5 in the entry (peptide S4-A5-R6); Trx-His6 tag cl)”, the IC50 [1, 4] was 1.6 ± 0.7 nM, the IC50 [2, 5] was greater than 200 nM and the IC50 [2, 6] was greater than 200 nM. The IC50 [2, 7] was 0.87 ± 0.8 nM, the IC50 [2, 8] was 1.1 ± 0.6 nM and the IC50 [2, 9] was 1 ± 0.2 nM. It also gave an IC50 [3, 10] of 1.7 ± 0.7 nM.

B1: MLL1^160: N-terminal 160 amino acids of human MLL1, Cys2 mutated to alanine, recombinant (protein)
chain: MAHSARWRFPARPGTTGGGGGGGRRGLGGAPRQRVPALLLPPGPPVGGGGPGAPPSPPAVAAAAAAAGSSGAGVPGGAAAASAASSSSASSSSSSSSSASSGPALLRVGPGFDAALQVSAAIGTNLRRFRAVFGESGGGGGSGEDEQFLGFGSDEEVRVR
modifications: The printed 'Cys2' is the single N-terminal cysteine, Cys5 in the entry (peptide S4-A5-R6); Trx-His6 tag cleaved
B1 showed an IC50 [1, 4] of 4.1 ± 1.3 nM, an IC50 ([2]; 24 to 72 h incubations, read-out: IC50 values, range over time points) of 4.7 to 10.9 nM and an IC50 [2, 5] greater than 200 nM. The IC50 [2, 6] was greater than 200 nM, the IC50 [2, 7] was 4.73 ± 0.8 nM and the IC50 [2, 8] was 10.9 ± 6.2 nM. It also gave an IC50 [2, 9] of 7.9 ± 0.5 nM and an IC50 [3, 10] of 5.1 ± 0.2 nM.
